{
  "source": "patent US6939679",
  "about": "(RIKEN, dated 2005)",
  "binders": {"B1": {"name": "NADE-lexA fusion protein (other)", "chain": "MANVHQENEEMEQPLQNGQEDRPVGGGEGHQPAANNNNNNHNHNHNHHRRGQARRLAPNFRWAIPNRQMNDGLGGDGDDMEMFMEEMREIRRKLRELQLRNCLRILMGELSNHHDHHDEFCLMP", "notes": "range 1-124; Bait of the yeast two-hybrid screen; also called pBTM116-NADE; lexA-X fusion protein"}},
  "target": "T1, Mus 16-3-3 epsilon (mouse, UniProt P62259 1-255)",
  "T1 construct": "VP16 fusion as in the yeast two-hybrid screen; also called 14-3-3 E; 14-3-3 epsilon",
  "T1 sequence": "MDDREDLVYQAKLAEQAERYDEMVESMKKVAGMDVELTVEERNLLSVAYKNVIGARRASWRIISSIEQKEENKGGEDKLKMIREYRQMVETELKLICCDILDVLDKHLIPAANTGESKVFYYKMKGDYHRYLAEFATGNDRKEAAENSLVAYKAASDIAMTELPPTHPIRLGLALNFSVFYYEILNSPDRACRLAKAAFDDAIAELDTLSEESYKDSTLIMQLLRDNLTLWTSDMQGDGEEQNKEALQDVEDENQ",
  "test": "yeast two-hybrid, lexA-NADE bait against VP16 mouse embryo cDNA library; His selection, beta-gal assay and mating test",
  "data": [
    {"binder": "B1", "values": [
      {"measurement": "binding result", "result": "binds"}
    ]}
  ]
}
